From patent publication US20050079151A1, “Therapeutic agents for apoptosis-related diseases” (priority 1998, published 2005)

What was measured:
NG 108 cell lines = assay: Determination of DNA content in apoptosis-induced neurocytes (UV, PI staining, flow cytometry); type: cell-based, mouse; conditions: after UV exposure; for Ratio of cells at each cell cycle: G1: control group 7; for Ratio of cells at each cell cycle: G2/M: control group 9; for Ratio of cells at each cell cycle: S: control group 84
Experimental: The culture flasks were coated with MK 100 ng/ml or MK 10 μg/ml. The flasks without a MK-coating (control) were also prepared.
NG 108 cell lines, hybrid cells of mouse neuroblastoma C1300 and glioma (Nelson P. G. et al.: Brain Res., 147: 245, 1978), were cultured in a Falcon 3110 cell culture flask (75 cm^2, BECTON DICKINSON) containing 10% FBS/DMEM until the cells were almost confluent. After culturing, the cells were exposed to ultraviolet light for […] (UV radiation amount: 60-100 J/m^2) to induce apoptosis.
The cells were collected by centrifugation (4° C., 1000 rpm, 10 min), and washed with 10 to 12 ml of sample buffer [1 g glucose/1 L PBS (−); filtered through a 0.22 μm filter] twice. The cells were adjusted to 1×10^6 to 3×10^6 cells/ml with the sample buffer, and 1 ml of them was centrifuged (4° C., 1000 rpm, 10 min) in a centrifuge tube (FALCON; 15×75 mm). The supernatant was discarded and the pellet was vigorously vortexed for 10 sec. Ethanol (70%) cooled with ice (1 ml) was added dropwise thereto and fixed at 4° C. overnight.
The cells fixed overnight were briefly vortexed and centrifuged (3000 rpm, 5 min). 70% Ethanol in the supernatant was discarded to 0.2 ml or less. The centrifuge tubes containing the cells were slowly vortexed, and 1 ml of propidium iodide (PI) stain was added thereto. The PI stain contained 0.5 ml of 20×PI solution, 0.1 ml of 100×RNase A solution, and 10 ml of the sample buffer. Twenty-fold dilution of PI was obtained by preparing 1 mg/ml of PI solution (SIGMA), filtering it through a 0.22 μm filter, and storing it at 4° C. in the dark. RNase A solution (100×) was prepared by adjusting RIBONUCLEASE A (Type I-A) (SIGMA) (10000 U/ml) to 125 mg/ml (80 U/mg).
The cells were lightly shaken, incubated for 30 min or longer at room temperature, and measured by flow cytometry.

[1] = system: hippocampal region CA1 neurocytes; assay: Apoptosis-inhibitory effect in vivo, transient forebrain ischemia, administration before ischemic damage; parameters: species or system Mongolian gerbil; conditions: for numbers of surviving nuclei contained in the CA1 region per unit length of CA1: mean±standard deviation, saline 18±25, Sham-op 265±38; for number of nuclei showing apoptosis positive reaction (TUNEL) against the total number of cells: saline 69.7±17.0, Sham-op 0.0±0.0; for numbers of neurocytes in CA1: 2 μg MK, saline 10±10, sham-op 263±31
From the text: (1) Six to 16 male Mongolian gerbils (6- to 8-week old, body weight: 60 to 80 g) for each group were housed in “HONEY MATIC M-3” (KIMURA MEDICAL INSTRUMENT LTD.), an anesthetic delivery device for Fluothane, and the container was filled with an appropriate amount of inhalation anesthetic “Fluothane” (halothane according to Japanese Phamacopeia). The anesthetized animals were fixed on an operating table equipped with an injection holder (NARISHINGE SCEITIFIC INSTRUMENT LAB.; TYPE SR-5N, No. 97024). After the head was subjected to midline incision, a hole for inserting a syringe of an appropriate size was made by a dental drill at a site 2 mm away from the bregma towards the left eyeball direction. Through this hole, 2 μl of 0.25 mg/ml, 0.5 mg/ml or 1 mg/ml MK solutions (0.5 μg, 1.0 μg, 2.0 μg ) (in physiological saline) were seperately injected into the ventricle with a microsyringe (HAMILTON MICROLITER #701). As control groups, a saline injected group and the sham operated (Sham-op) group were prepared. After injection into the ventricle, the mice were left for 4 min and the operated site was sutured. The chest was subjected to midline incision to expose both right and left common carotid arteries. The both arteries were ligated with two pieces of Sugita brain aneurysm clip (standard type; MIZUHO) to stop blood flow for 5 min, and the blood was circulated again. During ischemic loading, brain temperature and body temperature were maintained constant (37±0.2° C.). Each mouse was distinguished and housed in a nursery cage after coming out of anesthesia to breed, allowing the animals to freely intake water and food. After one week, the mice were fixed while perfusing with saline containing 0.2% heparin (Novo Heparin Injection 100; Japan Hoechet Marion Russell LTD) and 4% paraformaldehyde solution, and beheaded. The brain was excised using scissors, and immersed in 4% paraformaldehyde fixative for one day. The rear portion from 2 mm ahead of the bregma was divided into three using a double-edged razor (Feather). These sections were further fixed for 24 hours. Tissues containing dorsal hippocampus were dehydrated and penetrated, and embedded with paraffin.
A 5 μm section, from 0.5 to 1.0 mm from the tip of the hippocampus or from 1.4 to 1.9 mm behind the sagittal suture was prepared from this paraffin block and observed by the TUNEL method (In situ Apoptosis Detection Kit, TaKaRa). The results are shown in FIG. 8 (×25) and FIG. 9 (×100).
(2) By following the method described in (1), MK solution (0.063 μg, 0.125 μg, 0.25 μg, 0.5 μg, 1 fig, or 2 μg), was injected into the ventricle just before development of ischemic injury to examine protective effects of MK on delayed neuronal death. Seven days after the injury, the CA1 region were stained with hematoxylin-eosine. Micrographs in low magnification (×25) are shown in FIG. 10 (FIG. 10a: saline, FIG. 10b: Sham-op, FIG. 10c: MK 2 μg, FIG. 10d: MK 1 μg, FIG. 10e: MK 0.5 μg, FIG. 10f: MK 0.25 μg), and those in high magnification (×100) in FIG. 11 (FIG. 11a: saline, FIG. 11b: Sham-op, FIG. 11c: MK 2 μg, FIG. 11d: MK 1 vg, FIG. 11e: MK 0.5 vg, FIG. 11f: MK 0.25 μg).
For quantitative evaluation, the numbers of surviving nuclei contained in the CA1 region per unit length of CA1 were obtained (FIG. 12). The values were 18±25/mm(n=15, mean±standard deviation) for the saline administration group and 265±38 /mm (n=23) for the Sham-op group. For the 0.5, 1, or 2 μg MK administration groups, the values were 217±109 (n=7), 228±84 (n=8), and 243±82 (n=10), respectively. The values decreased when MK concentration was low (FIG. 12). There was a significant difference between the saline administrated group and MK administrated (0.5 to 2 μg MK) groups (ANOVA and post-hoc Fisher's PLSD teat, p<0.0001).
Whether the effect of MK administration (2 μg) continues was examined. […]

B1: MK: midkine, a heparin-binding growth and differentiation factor; human MK protein (SEQ ID NO: 3; or recombinant, secreted by yeast) (protein, UniProt P21741 21-143, looked up)
Midkine: VAKKKDKVKKGGPGSECAEWAWGPCTPSSKDCGVGFREGTCGAQTQRIRCRVPCNWKKEFGADCKYKFENWGACDGGTGTKVRQGTLKKARYNAQCQETIRVTKPCTPKTKAKAKAKKGKGKD
- Ratio of cells at each cell cycle: G1 (NG 108 cell lines; flask coated with MK 100 ng/ml): 75%
- Ratio of cells at each cell cycle: G2/M (NG 108 cell lines; flask coated with MK 100 ng/ml): 5%
- Ratio of cells at each cell cycle: S (NG 108 cell lines; flask coated with MK 100 ng/ml): 19%
- Ratio of cells at each cell cycle: G1 (NG 108 cell lines; flask coated with MK 10 μg/ml): 67%
- Ratio of cells at each cell cycle: G2/M (NG 108 cell lines; flask coated with MK 10 μg/ml): 24%
- Ratio of cells at each cell cycle: S (NG 108 cell lines; flask coated with MK 10 μg/ml): 9%
- change of the ratio of the cells at G1 phase compared with the control group (NG 108 cell lines; in the presence of MK): increased by about tenfold
- change of the ratio of the cells at S phase compared with the control group (NG 108 cell lines; in the presence of MK): decreased one eighth to one forth
- nuclei in CA1 region, hematoxylin-eosine, high magnification ([1]; 0.25 μg MK into the ventricle just before ischemic injury, seven days after): Deteriorated nuclei were observed
- numbers of surviving nuclei contained in the CA1 region per unit length of CA1 ([1]; 0.5 μg MK just before ischemia, seven days after): 217±109 /mm
- number of nuclei showing apoptosis positive reaction (TUNEL) against the total number of cells ([1]; 0.5 μg MK just before ligation, seven days after): 7.8±19.8
- numbers of surviving nuclei contained in the CA1 region per unit length of CA1 ([1]; 1 μg MK just before ischemia, seven days after): 228±84 /mm
- number of nuclei showing apoptosis positive reaction (TUNEL) against the total number of cells ([1]; 1 μg MK just before ligation, seven days after): 11.0±14.7
- numbers of surviving nuclei contained in the CA1 region per unit length of CA1 ([1]; 2 μg MK just before ischemia, seven days after): 243±82 /mm
- number of nuclei showing apoptosis positive reaction (TUNEL) against the total number of cells ([1]; 2 μg MK just before ligation, seven days after): 4.6±12.2
- numbers of neurocytes in CA1 ([1]; four weeks after ischemia): 157±60 cells/mm
- numbers of neurocytes in CA1 ([1]; one week after ischemia): 219±74 cells/mm
- numbers of neurocytes in CA1 ([1]; three weeks after ischemia): 185±83 cells/mm
- numbers of neurocytes in CA1 ([1]; two weeks after ischemia): 152±72 cells/mm
- nuclei in CA1 region, hematoxylin-eosine, high magnification ([1]; 0.5 to 2 μg MK into the ventricle just before ischemic injury, seven days after): survived circle nuclei were observed
- TUNEL stained nuclei in hippocampal region CA1 ([1]; 0.5 to 2 μg MK just before ligation, seven days after): Few stained nuclei were observed
- activity against delayed neuronal death ([1]; 28 days after the injury): showed a significant activity
- cells containing TUNEL reaction positive nuclei and atrophied neurocytes in hippocampal region CA1 ([1]; MK injected into the ventricle before 5 min ischemia, one week after): such neurocytes were not observed
